In patent publication US20260207718:

Target: cation-independent mannose-6-phosphate receptor (CIMPR) on fibroblast cells (UniProt P11717)
Sequence (P11717 41-2491): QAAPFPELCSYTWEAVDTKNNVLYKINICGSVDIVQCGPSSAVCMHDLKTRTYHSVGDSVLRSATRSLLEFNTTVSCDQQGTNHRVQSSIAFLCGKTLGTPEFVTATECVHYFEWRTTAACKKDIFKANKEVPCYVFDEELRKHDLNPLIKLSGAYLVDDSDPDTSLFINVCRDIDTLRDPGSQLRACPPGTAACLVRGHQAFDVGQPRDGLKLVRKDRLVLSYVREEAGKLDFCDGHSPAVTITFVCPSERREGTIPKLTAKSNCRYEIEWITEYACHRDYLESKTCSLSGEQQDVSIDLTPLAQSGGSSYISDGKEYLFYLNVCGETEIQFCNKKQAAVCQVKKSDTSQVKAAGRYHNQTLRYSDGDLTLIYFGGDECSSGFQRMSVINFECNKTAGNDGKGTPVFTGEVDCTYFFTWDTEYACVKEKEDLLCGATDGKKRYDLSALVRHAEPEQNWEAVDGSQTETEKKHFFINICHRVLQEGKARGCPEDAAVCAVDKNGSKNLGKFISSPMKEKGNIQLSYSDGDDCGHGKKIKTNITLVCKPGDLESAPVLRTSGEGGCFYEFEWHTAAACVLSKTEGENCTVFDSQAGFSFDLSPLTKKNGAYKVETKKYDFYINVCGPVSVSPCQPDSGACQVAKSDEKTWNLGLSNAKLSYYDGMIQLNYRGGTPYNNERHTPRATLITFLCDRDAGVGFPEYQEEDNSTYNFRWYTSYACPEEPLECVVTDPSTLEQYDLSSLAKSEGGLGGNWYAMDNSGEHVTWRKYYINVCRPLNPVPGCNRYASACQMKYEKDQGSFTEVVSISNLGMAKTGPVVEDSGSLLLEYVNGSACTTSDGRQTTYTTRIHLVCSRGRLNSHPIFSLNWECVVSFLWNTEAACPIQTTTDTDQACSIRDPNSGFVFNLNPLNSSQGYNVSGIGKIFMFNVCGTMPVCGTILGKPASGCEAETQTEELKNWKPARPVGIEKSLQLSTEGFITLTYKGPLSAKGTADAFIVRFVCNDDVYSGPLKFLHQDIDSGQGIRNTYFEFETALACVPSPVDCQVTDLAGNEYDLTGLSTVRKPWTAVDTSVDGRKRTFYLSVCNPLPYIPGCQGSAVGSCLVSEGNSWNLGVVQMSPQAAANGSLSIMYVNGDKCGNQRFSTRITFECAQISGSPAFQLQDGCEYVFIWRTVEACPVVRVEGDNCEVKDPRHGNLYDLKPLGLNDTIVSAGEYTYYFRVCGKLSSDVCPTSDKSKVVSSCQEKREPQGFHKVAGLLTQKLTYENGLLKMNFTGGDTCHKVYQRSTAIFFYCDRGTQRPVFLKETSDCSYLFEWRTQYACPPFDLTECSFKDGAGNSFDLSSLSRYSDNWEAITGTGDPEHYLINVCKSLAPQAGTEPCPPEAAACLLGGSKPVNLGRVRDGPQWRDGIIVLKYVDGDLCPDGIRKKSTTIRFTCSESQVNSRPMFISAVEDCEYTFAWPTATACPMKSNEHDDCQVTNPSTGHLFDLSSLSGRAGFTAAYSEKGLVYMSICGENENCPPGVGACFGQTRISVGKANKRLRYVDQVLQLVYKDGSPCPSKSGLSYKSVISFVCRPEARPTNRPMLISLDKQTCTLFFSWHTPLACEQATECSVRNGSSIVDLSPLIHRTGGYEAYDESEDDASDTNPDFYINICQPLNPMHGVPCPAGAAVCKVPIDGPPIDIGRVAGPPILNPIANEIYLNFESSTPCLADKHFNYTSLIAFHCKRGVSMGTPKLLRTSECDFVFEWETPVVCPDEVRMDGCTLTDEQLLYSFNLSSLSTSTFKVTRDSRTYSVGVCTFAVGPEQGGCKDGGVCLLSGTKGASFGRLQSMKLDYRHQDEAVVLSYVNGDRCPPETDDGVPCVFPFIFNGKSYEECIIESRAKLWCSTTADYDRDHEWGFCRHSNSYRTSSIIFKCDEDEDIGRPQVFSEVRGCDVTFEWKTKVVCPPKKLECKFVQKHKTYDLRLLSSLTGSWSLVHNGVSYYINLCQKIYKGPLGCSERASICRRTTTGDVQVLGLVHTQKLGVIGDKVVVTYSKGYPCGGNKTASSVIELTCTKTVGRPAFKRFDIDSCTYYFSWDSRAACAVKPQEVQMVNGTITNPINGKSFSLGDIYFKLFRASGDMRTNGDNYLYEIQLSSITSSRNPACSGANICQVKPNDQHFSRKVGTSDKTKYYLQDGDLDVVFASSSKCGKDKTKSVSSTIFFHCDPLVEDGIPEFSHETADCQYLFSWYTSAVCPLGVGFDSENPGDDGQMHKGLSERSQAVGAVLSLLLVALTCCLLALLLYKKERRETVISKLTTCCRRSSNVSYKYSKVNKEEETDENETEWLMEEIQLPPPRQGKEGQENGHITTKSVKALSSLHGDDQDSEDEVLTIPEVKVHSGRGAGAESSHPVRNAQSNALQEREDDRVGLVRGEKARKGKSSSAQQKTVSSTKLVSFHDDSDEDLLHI

With “ATB200 recombinant human acid α-glucosidase (rhGAA)” the “stated: internalized (GAA activity inside CRL 2076 normal fibroblasts)” value was “The curve labelled ATB200 rises steeply from 0 to about 33 nmol/mg protein/hr at about 25 nM. It then stays on a plateau of about 34 up to about 240 nM. The +M6P point (triangle) at about 240 nM lies at about 5, near the zero line” and the “stated: internalized (GAA activity inside PM25 Pompe fibroblasts)” value was “The curve labelled ATB200 rises steeply from 0 to about 30 at about 10 nM and about 36 at about 27 nM. The fitted plateau is about 41 nmol/mg protein/hr from about 80 nM. The last point, at about 240 nM, is about 45. The +M6P points at about 245 nM lie at about 1-4, near the zero line”.

For “LUMIZYME® (alglucosidase alfa, conventional rhGAA product)”, the “stated: internalized (GAA activity inside CRL 2076 normal fibroblasts)” value was “The curve labelled Alglucosidase Alfa rises gradually from 0: about 8 at about 10 nM, about 16 at about 27 nM and about 23 at about 80 nM. It reaches about 35 nmol/mg protein/hr at about 240 nM, where it meets the ATB200 curve. The +M6P point (square) at about 240 nM lies at about 1, on the zero lin” and the “stated: internalized (GAA activity inside PM25 Pompe fibroblasts)” value was “The curve labelled Alglucosidase Alfa rises gradually from 0: about 7 at about 10 nM, about 13 at about 27 nM and about 26 at about 80 nM. It reaches about 37 nmol/mg protein/hr at about 240 nM and stays below the ATB200 curve throughout. The +M6P points at about 245 nM lie at about 1-4, near the ze”.
